Consider 34 molecules from article PMC12416549 (2024).

The target of the experiment is T1, TNFR1 (Homo sapiens, UniProt P19438).
T1 chain: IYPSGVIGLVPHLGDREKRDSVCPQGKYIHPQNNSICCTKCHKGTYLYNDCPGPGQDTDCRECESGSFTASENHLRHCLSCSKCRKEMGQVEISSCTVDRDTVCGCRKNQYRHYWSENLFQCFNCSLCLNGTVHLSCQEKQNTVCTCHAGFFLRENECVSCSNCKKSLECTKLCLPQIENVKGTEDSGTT
As to the kind of experiment: yeast display SC50.

B1: A106W (designed binder)
chain: MTLQELLREEALRRAEAEAFRYALELLAEKFPEQKEYLLDLAEEIESQIRSLSGVDVEDVRKFLDKEWAWVKELLAEHPAELAEVEAARAARLAELRAEVEAKVAW
As for B1, the “apparent Kd (screen)” value was 956 pM.

B2: K66R (designed binder)
chain: MTLQELLREEALRRAEAEAFRYALELLAEKFPEQKEYLLDLAEEIESQIRSLSGVDVEDVRKFLDREWAWVKELLAEHPAELAEVEAARAARLAELRAEVEAKVAA
Turning to B2, the “apparent Kd (screen)” value turned out to be 869 pM.

B3: L7E (designed binder)
chain: MTLQELEREEALRRAEAEAFRYALELLAEKFPEQKEYLLDLAEEIESQIRSLSGVDVEDVRKFLDKEWAWVKELLAEHPAELAEVEAARAARLAELRAEVEAKVAA
Take B3: the “apparent Kd (screen)” value turned out to be 15200 pM.

B4: Y37M (designed binder)
chain: MTLQELLREEALRRAEAEAFRYALELLAEKFPEQKEMLLDLAEEIESQIRSLSGVDVEDVRKFLDKEWAWVKELLAEHPAELAEVEAARAARLAELRAEVEAKVAA
On to B4, for which the “apparent Kd (screen)” value worked out at 2250 pM.

B5: E73H (designed binder)
chain: MTLQELLREEALRRAEAEAFRYALELLAEKFPEQKEYLLDLAEEIESQIRSLSGVDVEDVRKFLDKEWAWVKHLLAEHPAELAEVEAARAARLAELRAEVEAKVAA
In the case of B5, the “apparent Kd (screen)” value turned out to be 539 pM.

B6: A15D (designed binder)
chain: MTLQELLREEALRRDEAEAFRYALELLAEKFPEQKEYLLDLAEEIESQIRSLSGVDVEDVRKFLDKEWAWVKELLAEHPAELAEVEAARAARLAELRAEVEAKVAA
Consider B6, for which the “apparent Kd (screen)” value was 718 pM.

B7: V60E (designed binder)
chain: MTLQELLREEALRRAEAEAFRYALELLAEKFPEQKEYLLDLAEEIESQIRSLSGVDVEDERKFLDKEWAWVKELLAEHPAELAEVEAARAARLAELRAEVEAKVAA
Turning to B7, the “apparent Kd (screen)” value stood at 4390 pM.

B8: L41T (designed binder)
chain: MTLQELLREEALRRAEAEAFRYALELLAEKFPEQKEYLLDTAEEIESQIRSLSGVDVEDVRKFLDKEWAWVKELLAEHPAELAEVEAARAARLAELRAEVEAKVAA
Consider B8, for which the “apparent Kd (screen)” value came to 539 pM.

B9: A98K (designed binder)
chain: MTLQELLREEALRRAEAEAFRYALELLAEKFPEQKEYLLDLAEEIESQIRSLSGVDVEDVRKFLDKEWAWVKELLAEHPAELAEVEAARAARLAELRKEVEAKVAA
On to B9, for which the “apparent Kd (screen)” value came to 446 pM.

B10: A98H (designed binder)
chain: MTLQELLREEALRRAEAEAFRYALELLAEKFPEQKEYLLDLAEEIESQIRSLSGVDVEDVRKFLDKEWAWVKELLAEHPAELAEVEAARAARLAELRHEVEAKVAA
Consider B10, for which the “apparent Kd (screen)” value came to 593 pM.

B11: E77Q (designed binder)
chain: MTLQELLREEALRRAEAEAFRYALELLAEKFPEQKEYLLDLAEEIESQIRSLSGVDVEDVRKFLDKEWAWVKELLAQHPAELAEVEAARAARLAELRAEVEAKVAA
Regarding B11, the “apparent Kd (screen)” value came to 593 pM.

B12: R92P (designed binder)
chain: MTLQELLREEALRRAEAEAFRYALELLAEKFPEQKEYLLDLAEEIESQIRSLSGVDVEDVRKFLDKEWAWVKELLAEHPAELAEVEAARAAPLAELRAEVEAKVAA
Consider B12, for which the “apparent Kd (screen)” value came to 2250 pM.

B13: W70A (designed binder)
chain: MTLQELLREEALRRAEAEAFRYALELLAEKFPEQKEYLLDLAEEIESQIRSLSGVDVEDVRKFLDKEWAAVKELLAEHPAELAEVEAARAARLAELRAEVEAKVAA
Turning to B13, the “apparent Kd (screen)” value was 22200 pM.

B14: R8S (designed binder)
chain: MTLQELLSEEALRRAEAEAFRYALELLAEKFPEQKEYLLDLAEEIESQIRSLSGVDVEDVRKFLDKEWAWVKELLAEHPAELAEVEAARAARLAELRAEVEAKVAA
On to B14, for which the “apparent Kd (screen)” value was found to be 653 pM.

B15: P79I (designed binder)
chain: MTLQELLREEALRRAEAEAFRYALELLAEKFPEQKEYLLDLAEEIESQIRSLSGVDVEDVRKFLDKEWAWVKELLAEHIAELAEVEAARAARLAELRAEVEAKVAA
Regarding B15, the “apparent Kd (screen)” value worked out at 653 pM.

B16: E9K (designed binder)
chain: MTLQELLRKEALRRAEAEAFRYALELLAEKFPEQKEYLLDLAEEIESQIRSLSGVDVEDVRKFLDKEWAWVKELLAEHPAELAEVEAARAARLAELRAEVEAKVAA
Turning to B16, the “apparent Kd (screen)” value is 1860 pM.

B17: D65L (designed binder)
chain: MTLQELLREEALRRAEAEAFRYALELLAEKFPEQKEYLLDLAEEIESQIRSLSGVDVEDVRKFLLKEWAWVKELLAEHPAELAEVEAARAARLAELRAEVEAKVAA
Consider B17, for which the “apparent Kd (screen)” value stood at 956 pM.

B18: E77K (designed binder)
chain: MTLQELLREEALRRAEAEAFRYALELLAEKFPEQKEYLLDLAEEIESQIRSLSGVDVEDVRKFLDKEWAWVKELLAKHPAELAEVEAARAARLAELRAEVEAKVAA
B18: the “apparent Kd (screen)” value stood at 446 pM.

B19: A88H (designed binder)
chain: MTLQELLREEALRRAEAEAFRYALELLAEKFPEQKEYLLDLAEEIESQIRSLSGVDVEDVRKFLDKEWAWVKELLAEHPAELAEVEAHRAARLAELRAEVEAKVAA
In the case of B19, the “apparent Kd (screen)” value is 490 pM.

B20: K103M (designed binder)
chain: MTLQELLREEALRRAEAEAFRYALELLAEKFPEQKEYLLDLAEEIESQIRSLSGVDVEDVRKFLDKEWAWVKELLAEHPAELAEVEAARAARLAELRAEVEAMVAA
With B20, the “apparent Kd (screen)” value worked out at 718 pM.

B21: L82G (designed binder)
chain: MTLQELLREEALRRAEAEAFRYALELLAEKFPEQKEYLLDLAEEIESQIRSLSGVDVEDVRKFLDKEWAWVKELLAEHPAEGAEVEAARAARLAELRAEVEAKVAA
On to B21, for which the “apparent Kd (screen)” value is 1540 pM.

B22: L27M (designed binder)
chain: MTLQELLREEALRRAEAEAFRYALELMAEKFPEQKEYLLDLAEEIESQIRSLSGVDVEDVRKFLDKEWAWVKELLAEHPAELAEVEAARAARLAELRAEVEAKVAA
With B22, the “apparent Kd (screen)” value worked out at 593 pM.

B23: E95P (designed binder)
chain: MTLQELLREEALRRAEAEAFRYALELLAEKFPEQKEYLLDLAEEIESQIRSLSGVDVEDVRKFLDKEWAWVKELLAEHPAELAEVEAARAARLAPLRAEVEAKVAA
For B23, the “apparent Kd (screen)” value amounted to 718 pM.

B24: A80Y (designed binder)
chain: MTLQELLREEALRRAEAEAFRYALELLAEKFPEQKEYLLDLAEEIESQIRSLSGVDVEDVRKFLDKEWAWVKELLAEHPYELAEVEAARAARLAELRAEVEAKVAA
In the case of B24, the “apparent Kd (screen)” value is 593 pM.

B25: D59F (designed binder)
chain: MTLQELLREEALRRAEAEAFRYALELLAEKFPEQKEYLLDLAEEIESQIRSLSGVDVEFVRKFLDKEWAWVKELLAEHPAELAEVEAARAARLAELRAEVEAKVAA
Turning to B25, the “apparent Kd (screen)” value came to 12500 pM.

B26: V60L (designed binder)
chain: MTLQELLREEALRRAEAEAFRYALELLAEKFPEQKEYLLDLAEEIESQIRSLSGVDVEDLRKFLDKEWAWVKELLAEHPAELAEVEAARAARLAELRAEVEAKVAA
With B26, the “apparent Kd (screen)” value amounted to 593 pM.

B27: D59A (designed binder)
chain: MTLQELLREEALRRAEAEAFRYALELLAEKFPEQKEYLLDLAEEIESQIRSLSGVDVEAVRKFLDKEWAWVKELLAEHPAELAEVEAARAARLAELRAEVEAKVAA
As for B27, the “apparent Kd (screen)” value was found to be 539 pM.

B28: A102I (designed binder)
chain: MTLQELLREEALRRAEAEAFRYALELLAEKFPEQKEYLLDLAEEIESQIRSLSGVDVEDVRKFLDKEWAWVKELLAEHPAELAEVEAARAARLAELRAEVEIKVAA
Consider B28, for which the “apparent Kd (screen)” value came out at 956 pM.

B29: L96E (designed binder)
chain: MTLQELLREEALRRAEAEAFRYALELLAEKFPEQKEYLLDLAEEIESQIRSLSGVDVEDVRKFLDKEWAWVKELLAEHPAELAEVEAARAARLAEERAEVEAKVAA
With B29, the “apparent Kd (screen)” value turned out to be 446 pM.

B30: E29P (designed binder)
chain: MTLQELLREEALRRAEAEAFRYALELLAPKFPEQKEYLLDLAEEIESQIRSLSGVDVEDVRKFLDKEWAWVKELLAEHPAELAEVEAARAARLAELRAEVEAKVAA
As for B30, the “apparent Kd (screen)” value turned out to be 718 pM.

B31: R92H (designed binder)
chain: MTLQELLREEALRRAEAEAFRYALELLAEKFPEQKEYLLDLAEEIESQIRSLSGVDVEDVRKFLDKEWAWVKELLAEHPAELAEVEAARAAHLAELRAEVEAKVAA
Take B31: the “apparent Kd (screen)” value was 869 pM.

B32: K103V (designed binder)
chain: MTLQELLREEALRRAEAEAFRYALELLAEKFPEQKEYLLDLAEEIESQIRSLSGVDVEDVRKFLDKEWAWVKELLAEHPAELAEVEAARAARLAELRAEVEAVVAA
On to B32, for which the “apparent Kd (screen)” value was found to be 593 pM.

B33: V100A (designed binder)
chain: MTLQELLREEALRRAEAEAFRYALELLAEKFPEQKEYLLDLAEEIESQIRSLSGVDVEDVRKFLDKEWAWVKELLAEHPAELAEVEAARAARLAELRAEAEAKVAA
As to B33, the “apparent Kd (screen)” value stood at 869 pM.

B34: L6I (designed binder)
chain: MTLQEILREEALRRAEAEAFRYALELLAEKFPEQKEYLLDLAEEIESQIRSLSGVDVEDVRKFLDKEWAWVKELLAEHPAELAEVEAARAARLAELRAEVEAKVAA
On to B34, for which the “apparent Kd (screen)” value amounted to 539 pM.
